Measured values taken from paper PMC3421056 (2012).

Legend:
Factor Xa [1] = target: T1, Factor Xa (Homo sapiens, UniProt P00742); experiment: chromogenic substrate S2222 inhibition, apparent Ki
T1 chain: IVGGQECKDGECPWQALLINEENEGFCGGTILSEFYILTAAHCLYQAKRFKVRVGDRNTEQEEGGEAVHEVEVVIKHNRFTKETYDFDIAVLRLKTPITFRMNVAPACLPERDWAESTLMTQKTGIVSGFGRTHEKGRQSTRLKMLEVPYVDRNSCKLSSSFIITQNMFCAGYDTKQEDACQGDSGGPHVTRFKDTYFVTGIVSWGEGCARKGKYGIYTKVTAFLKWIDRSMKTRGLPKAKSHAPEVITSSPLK

Factor Xa [2] = target: T1, Factor Xa; experiment: SPR steady-state
Factor Xa [3] = target: T1, Factor Xa; experiment: ITC
Factor Xa [4] = target: T1, Factor Xa; experiment: SPR kinetics
Factor Xa [5] = target: T1, Factor Xa; experiment: chromogenic substrate S2222 inhibition, alphaKi

Row | Binder | Ki (Factor Xa [1]) [nM] | Kd (Factor Xa [2]) [nM] | Kd (Factor Xa [3]) [nM] | Kd (Factor Xa [4]) [nM] | Ki (Factor Xa [5]) [nM]
1 | Lufaxin 1-278 (protein) DGDEYFIGKYKEKDETLFFASYGLKRDPCQIVLGYKCSNNQTHFVLNFKTNKKSCISAIKLTSYPKINQNSDLTKNLYCQTGGIGTDNCKLVFKKRKRQIAANIEIYGIPAKKCSFKDRYIGADPLHVDSYGLPYQFDQEHGWNVERYNIFKDTRFSTEVFYHKNGLFNTQITYLAEEDSFSEAREITAKDIKKKFSIILPNEEYKRISFLDVYWFQETMRKKPKYPYIHYNGECSNENKTCELVFDTDELMTYALVKVFTNPESDGSRLKEEDLGRG | 0.95 | 9.69 | 2.1 | 3.86 | 
2 | Lufaxin 1-278 (protein, S2222 substrate-bound FXa) DGDEYFIGKYKEKDETLFFASYGLKRDPCQIVLGYKCSNNQTHFVLNFKTNKKSCISAIKLTSYPKINQNSDLTKNLYCQTGGIGTDNCKLVFKKRKRQIAANIEIYGIPAKKCSFKDRYIGADPLHVDSYGLPYQFDQEHGWNVERYNIFKDTRFSTEVFYHKNGLFNTQITYLAEEDSFSEAREITAKDIKKKFSIILPNEEYKRISFLDVYWFQETMRKKPKYPYIHYNGECSNENKTCELVFDTDELMTYALVKVFTNPESDGSRLKEEDLGRG |  |  |  |  | 2.21
